For two substances, Kd results are on record in paper PMC9033776.

Assay [1] concerns the target BRD4-bromo2 domain (amino acids 351–457) (UniProt O60885). Briefly: ITC; 3 mM H2A.Z peptides titrated into 0.3 mM bromodomains; 25 °C; 20 mM Hepes-Na pH 7.5, 100 mM NaCl; One Set of Binding Sites model. (In general: Isothermal titration calorimetry measures the heat released or taken up as one component is titrated into another.)
The target of assay [2] is BRD4-bromo1 (amino acids 54–168) (UniProt O60885). The description is as above.

For orientation: Kd means the free concentration of one partner at which half of the binding sites on the other are occupied at equilibrium, for simple one-to-one binding. Low readings indicate tighter binding, high ones weaker binding. In the case of “di-acetylated H2A.Z (1–15) K4acK7ac peptide (from UniProt P0C0S5 2-16)”, the Kd was 820 µM in assay [1] and 4810 µM in assay [2].
The matching figures for “tri-acetylated H2A.Z (1–15) K4acK7acK11ac peptide (from UniProt P0C0S5 2-16)”: 600 µM and 2270 µM.
